# Assay results taken from article doi:10.1101/2025.10.03.680245 (bioRxiv, 2025).
# What was measured:
# [1] = target: the molecule itself; assay: negative-stain transmission electron microscopy
# [2] = target: GFP-tagged Cdc11-capped recombinant septin octamers (budding yeast (S. cerevisiae), UniProt P32458;P32468;P32457;P25342); assay: fluorescence microscopy of purified proteins in solution
binding result [2],Binder,binding result [1]
–,Recombinant Cdc11-capped septin octamers (complex) chain 1: MSGIIDASSALRKRKHLKRGITFTVMIVGQSGSGRSTFINTLCGQQVVDTSTTILLPTDTSTEIDLQLREETVELEDDEGVKIQLNIIDTPGFGDSLDNSPSFEIISDYIRHQYDEILLEESRVRRNPRFKDGRVHCCLYLINPTGHGLKEIDVEFIRQLGSLVNIIPVISKSDSLTRDELKLNKKLIMEDIDRWNLPIYNFPFDEDEISDEDYETNMYLRTLLPFAIIGSNEVYEMGGDVGTIRGRKYPWGILDVEDSSISDFVILRNALLISHLHDLKNYTHEILYERYRTEALSGESVAAESIRPNLTKLNGSSSSSTTTRRNTNPFKQSNNINNDVLNPASDMHGQSTGENNETYMTREEQIRLEEERLKAFEERVQQELLLKRQELLQREKELREIEARLEKEAKIKQEE chain 2: MSAATATAAPVPPPVGISNLPNQRYKIVNEEGGTFTVMLCGESGLGKTTFINTLFQTVLKRADGQQHRQEPIRKTVEIDITRALLEEKHFELRVNVIDTPGFGDNVNNNKAWQPLVDFIDDQHDSYMRQEQQPYRTKKFDLRVHAVLYFIRPTGHGLKPIDIETMKRLSTRANLIPVIAKADTLTAQELQQFKSRIRQVIEAQEIRIFTPPLDADSKEDAKSGSNPDSAAVEHARQLIEAMPFAIVGSEKKFDNGQGTQVVARKYPWGLVEIENDSHCDFRKLRALLLRTYLLDLISTTQEMHYETYRRLRLEGHENTGEGNEDFTLPAIAPARKLSHNPRYKEEENALKKYFTDQVKAEEQRFRQWEQNIVNERIRLNGDLEEIQGKVKKLEEQVKSLQVKKSHLK chain 3: MSLKEEQVSIKQDPEQEERQHDQFNDVQIKQESQDHDGVDSQYTNGTQNDDSERFEAAESDVKVEPGLGMGITSSQSEKGQVLPDQPEIKFIRRQINGYVGFANLPKQWHRRSIKNGFSFNLLCVGPDGIGKTTLMKTLFNNDDIEANLVKDYEEELANDQEEEEGQGEGHENQSQEQRHKVKIKSYESVIEENGVKLNLNVIDTEGFGDFLNNDQKSWDPIIKEIDSRFDQYLDAENKINRHSINDKRIHACLYFIEPTGHYLKPLDLKFMQSVYEKCNLIPVIAKSDILTDEEILSFKKTIMNQLIQSNIELFKPPIYSNDDAENSHLSERLFSSLPYAVIGSNDIVENYSGNQVRGRSYPWGVIEVDNDNHSDFNLLKNLLIKQFMEELKERTSKILYENYRSSKLAKLGIKQDNSVFKEFDPISKQQEEKTLHEAKLAKLEIEMKTVFQQKVSEKEKKLQKSETELFARHKEMKEKLTKQLKALEDKKKQLELSINSASPNVNHSPVPTKKKGFLR chain 4: MDPLSSVQPASYVGFDTITNQIEHRLLKKGFQFNIMVVGQSGLGKSTLINTLFASHLIDSATGDDISALPVTKTTEMKISTHTLVEDRVRLNINVIDTPGFGDFIDNSKAWEPIVKYIKEQHSQYLRKELTAQRERFITDTRVHAILYFLQPNGKELSRLDVEALKRLTEIANVIPVIGKSDTLTLDERTEFRELIQNEFEKYNFKIYPYDSEELTDEELELNRSVRSIIPFAVVGSENEIEINGETFRGRKTRWSAINVEDINQCDFVYLREFLIRTHLQDLIETTSYIHYEGFRARQLIALKENANSRSSAHMSSNAIQR,binds
binds,"MBP-Bud4ΔN-HALO (domain or fragment, HaloTag Alexa-Fluor 660 fluorescent ligand on the HALO tag) MKPSDYISIWHIQEEEIKSNSPESIANSQFSQQSSITTASTVDSKKDNGSTSFKFKPRIVSRSRIYNPKSRVSSLNYYDNEDYILSNSEWNALDPMRRNTLISKRIQDNIRTQKGHAPLIRPSIMKLNGEDSGFQNHFLEVEQPQEHENIPLSTHLSEQDITTNVGLDEQKLPTNTQDEAEISIREIESAGDITFNRGDLLSLSFDEELGQDFANFLDALDHDSTSFNHGPDDSSSFQRDSSKKSFNSLWESSYELKPPPSIRKQPIAPDVLQKLLESDTKDDADLEKIREERITEPRTGLGIGMLKTPVKDVSIALAASIKGYEASFSDTDSRPEGMNNSDAITLNMFDDFEEDKMTPSTPVRSISPIKRHVSSPFKVVKAGNKQENNEINIKAEEEIEPMTQQETDGLKQDIPPLLAQTKDNVEAKEETITQLEEPQDVEQEFPDMGTLYLSIKAISTLALYGTKSHRATYAIVFDNGENVVQTPWESLPYDGNIRINKEFELPIDFKGKAETSSASSERDSYKKCVITLKCKYEKPRHELVEIVDKVPVGKSFFGKTKYKFEKKYVQKKPKQDEWDYLFAQDGSFARCEIEINEEFLKNVAFNTSHMHYNMINKWSRIADKIHGSKRLYELPRKAPHKVASLDVEACFLERTSAFEQFPKQFSLVNKIVSKYKLQQNIYKEGYLLQDGGDLKGKIENRFFKLHGSQLSGYHEISRKAKIDINLLKVTKVLRNEDIQADNGGQRNFTDWVLFNECFQLVFDDGERITFNAECSNEEKSDWYNKLQEVVELNVFHQPWVKKYCEKLAEEEKTRTTGHNLKQDFN",–
